{
  "source": "paper PMC9894162",
  "binders": {"B1": {"name": "genomic Sox2 DNA duplex (dsDNA)", "DNA 1": "TCAGCAAGCGCCTGGGCGCCGAGTGGAAACTTTTG", "DNA 2": "CAAAAGTTTCCACTCGGCGCCCAGGCGCTTGCTGA"}},
  "target": "GST-NS5 (Zika virus, UniProt A0A1B0XTC8 2521-3423)",
  "assay": "EMSA",
  "data": [
    {"binder": "B1", "values": [
      {"measurement": "binding result", "result": "binds"}
    ]}
  ]
}
